For assay [1], the target named is T1, Siglec-9-Fc (in-house production).
T1 construct: The entry holds the Siglec-9 part and the Fc together; also called Siglec-9-Fc protein
Description: blocking assay: Calcein-AM labelled sialic acid-displaying A549 tumour cells binding to plate-captured Siglec-9-Fc, antibody titrated, n=3. The procedure:
FIG. 4: Titration of monoclonal antibodies (68D4 and 224B1; comparative monoclonal antibodies mAbA and 5C6 & negative control 53C3) to determine blocking the binding of sialic acid-displaying A549 tumour cells to Siglec-9. Tumour cells were fluorescently-loaded with Calcein-AM in advance to the binding experiment and binding was determined by the released fluorescence upon cell lysis. Fluorescence released in the absence of antibody was set to 100% binding. Data was fitted by three-parameter analysis in GraphPad Prism (GraphPad Software); n=3.
To analyse if anti-Siglec-9 antibodies recognize the ligand-binding domain and block the binding of Siglec-9 to its ligands, sialic acids, we performed a cell-based assay where the binding of sialic-acid expressing A549 tumour cells to Siglec-9-Fc is evaluated in ELISA. ELISA-plates were coated with 3 μg/ml Protein-A (Thermo Fisher Scientific) overnight at 4° C. Plates were blocked with PBS, 1% BSA for 1 h, and incubated with 5 μg/ml Siglec-9-Fc for 1 h at RT. Anti-Siglec-9 antibodies at different concentrations (starting at 8 μg/ml or 53 nM); were mixed 1:1 with Calcein-AM (Thermo Fisher Scientific) labeled A549 tumour cells. The mixture was added to the ELISA plate and incubated for 1 h at 4° C. After washing of the plate, cells that were bound to the plate were lysed with PBS, 1% Triton-X 100 and released fluorescence was measured at an excitation of 485 nm and emission of 535 nm with a Synergy H1 (BioTek). Data were fitted by three-parameter analysis in GraphPad Prism (GraphPad Software).

Assay [2] has as its target T2, Siglec-9 protein (construct not stated; antigen of Examples 3 and 4) (human, UniProt Q9Y336 18-348, limits assumed). The assay can be described thus: SPR (Carterra LSA), antibody coupled to HC2000M chip, antigen at 20, 100 and 500 nM. The procedure:
KD determination was performed by SPR by individually coating the antibodies to HC2000M chips via sulpho-NHS/EDC coupling chemistry. Chips were afterwards blocked with ethanolamine. Antigen was applied in one of the three different concentrations (20 nM, 100 nM and 500 nM) with a contact time of 240 s, followed by a dissociation phase of 120 s. After each antigen incubation, the bound antigen was removed from the antibodies with 10 mM glycine at pH 2.0. All kinetic parameters (kₒₙ, koff and KD) were determined using a kinetic fitting program (LSA Kinetics, Carterra).

Assay [3] deals with T3, Siglec-9 expressed on cells (human, UniProt Q9Y336 18-463).
T3 construct: also called monocyte-expressed Siglec-9
The assay can be described thus: flow cytometry on human CD14+ monocytes (PBMC), mean RFU of the secondary antibody, three-parameter fit. The procedure: Human ex vivo PBMC were stained with fluorescence-labeled (allophycocyanin, APC) antibody to the monocyte marker CD14 (Biolegend) in assay buffer (0.5% (v/v) heat-inactivated fetal bovine serum (Gibco), 2 mM EDTA in phosphate-buffered saline). Subsequently, cells were incubated with antibodies under evaluation at various concentrations (67 nM-0.38 pM). After a washing step cells were incubated with fluorescence-labeled (Brilliant Violet 421™) secondary antibody against human IgG (mAbA) or rabbit IgG (all other monoclonal antibodies under evaluation; both secondary antibodies from Biolegend).
Binding of Siglec-9-specific antibodies to monocytes (CD14-positive life cells) was analysed with a CytoFLEX flow cytometer (Beckham Coulter's). The mean fluorescence intensity of the secondary antibody staining in the CD14-positive population at each dilution was determined using Flow Jo software (BD). Datapoints generated by this analysis were fitted and EC50 values were determined by three-parameter analysis in GraphPad Prism (GraphPad Software)
On the technique in general: Flow cytometry measures light scatter and fluorescence of single cells or particles in a stream.

Assay [4] deals with T2, Siglec-9 protein (construct not stated; …). The assay can be described thus: ELISA, coated Siglec-9 1 µg/ml, antibody titrated, Abs 450 nm, three-parameter fit, n=3. The procedure: FIG. 2: Binding curves of monoclonal antibodies (68D4 and 224B1; comparative monoclonal antibodies mAbA and 5C6 & negative control 53C3) towards Siglec-9 as analysed by ELISA. Binding of the monoclonal antibody to Siglec-9, as determined by measurement of the accumulated coloured product at 450 nm after stopping the reaction, is plotted against the concentration of the monoclonal antibody under evaluation.
Antibody binding affinity towards Siglec-9 was measured by a dilution series of the analysed antibodies on a fixed concentration of Siglec-9 protein in ELISA. To this end, Siglec-9 was coated at 1 μg/ml in 50 mM carbonate-bicarbonate buffer pH 9.6 for 15-20 hours at 4° C. Antigen solution was washed away (Tecan Hydrospeed) and plates were blocked with 5% skimmed milk in phosphate-buffered saline (PBS) for 1 hour at room temperature. Plates were washed and antibodies were added at concentrations of 0-420 nM. After incubation at room temperature for 1 hour plates were washed once more. Bound antibodies were detected by addition of horseradish peroxidase (HRP)-coupled secondary antibodies. Rabbit antibodies were detected by polyclonal anti-rabbit IgG antibody (Biolegend), mAbA by anti-human Fab fragment (Sigma Aldrich). After a last washing step, plates were developed by the addition of 3,3′,5,5′-Tetramethylbenzidine (TMB; Sigma Aldrich). Reaction was stopped by addition of sulfuric acid. Absorbance was detected at 450 nm (Tecan, CM […] MONO 200). Data were fitted and EC50 values were determined by three-parameter analysis in GraphPad Prism (GraphPad Software)
Background: In an ELISA, binding on a coated surface is turned into a signal by an enzyme label.

T2 sequence (Q9Y336 18-348 limits assumed): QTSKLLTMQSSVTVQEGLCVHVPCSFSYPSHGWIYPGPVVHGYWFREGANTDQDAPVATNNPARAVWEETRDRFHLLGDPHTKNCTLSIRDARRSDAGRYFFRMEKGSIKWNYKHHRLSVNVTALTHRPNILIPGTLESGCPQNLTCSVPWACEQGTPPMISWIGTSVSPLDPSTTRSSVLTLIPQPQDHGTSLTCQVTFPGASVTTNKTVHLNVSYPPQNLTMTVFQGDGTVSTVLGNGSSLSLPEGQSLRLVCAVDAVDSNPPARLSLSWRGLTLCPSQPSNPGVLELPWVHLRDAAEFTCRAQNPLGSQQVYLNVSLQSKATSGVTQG
T1 sequence (chain, as listed by the source limits assumed): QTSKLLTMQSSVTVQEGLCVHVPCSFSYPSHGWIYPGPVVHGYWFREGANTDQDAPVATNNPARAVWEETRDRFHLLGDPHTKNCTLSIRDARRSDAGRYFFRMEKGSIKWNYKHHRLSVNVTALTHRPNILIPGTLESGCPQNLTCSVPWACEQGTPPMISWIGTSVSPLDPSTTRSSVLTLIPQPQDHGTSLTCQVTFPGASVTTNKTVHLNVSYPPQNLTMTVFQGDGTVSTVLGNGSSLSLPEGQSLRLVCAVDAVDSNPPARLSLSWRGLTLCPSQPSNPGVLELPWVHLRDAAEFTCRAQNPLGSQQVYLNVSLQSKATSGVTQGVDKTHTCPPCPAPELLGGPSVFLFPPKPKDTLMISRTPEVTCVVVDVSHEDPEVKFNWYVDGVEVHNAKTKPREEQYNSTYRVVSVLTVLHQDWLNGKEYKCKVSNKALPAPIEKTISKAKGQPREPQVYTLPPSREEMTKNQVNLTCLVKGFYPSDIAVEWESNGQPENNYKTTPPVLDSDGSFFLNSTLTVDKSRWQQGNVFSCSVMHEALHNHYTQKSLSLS
T3 sequence (Q9Y336 18-463 limits assumed): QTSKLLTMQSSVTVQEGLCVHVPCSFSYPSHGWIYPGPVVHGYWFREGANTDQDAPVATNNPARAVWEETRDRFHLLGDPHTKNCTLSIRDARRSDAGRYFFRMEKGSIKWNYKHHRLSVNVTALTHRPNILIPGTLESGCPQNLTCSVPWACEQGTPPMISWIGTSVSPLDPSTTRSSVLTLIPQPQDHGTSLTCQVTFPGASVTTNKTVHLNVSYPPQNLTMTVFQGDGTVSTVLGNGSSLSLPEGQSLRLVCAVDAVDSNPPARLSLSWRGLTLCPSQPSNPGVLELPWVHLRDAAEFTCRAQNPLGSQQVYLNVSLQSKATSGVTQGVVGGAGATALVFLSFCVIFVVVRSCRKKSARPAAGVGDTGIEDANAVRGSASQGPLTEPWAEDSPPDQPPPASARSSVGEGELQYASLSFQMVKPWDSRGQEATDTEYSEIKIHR

B1: comparative monoclonal antibody mAbA (WO 2017/153433), mouse-human chimera (antibody, human IgG1, kappa, V domains shown)
VH: QVQLQQPGAELVKPGSPVKLSCKASYFTFTSYWMHWVRQRPGQGLEWIGEINPSNGHTNYNEKFESKATLTVDRSSSTAYMQLSSLTSEDSAVFYCANGVESYDFDDALDYWGQGTSVTVSS
VL: DIQMTQTTSSLSASLGDRVTISCRASQDINNYLNWYQQKPDGTIKLLIYYTSRLHSGVPSRFSGSGSGTDYSLTINNLEQEDIATYFCQQGNTLPFTFGGGTKLEIKR
For orientation: Kd means the concentration at which binding is half-saturated. A low value points to a tighter complex. What is called koff is the rate constant with which the complex falls apart. A higher koff goes with fast dissociation. As a reminder, the kon is the rate constant with which the complex forms. On to B1, for which, in assay [1], the binding result is “binds”. In assay [2], this molecule showed a Kd of 2.5 nM, a koff of 0.00053 s⁻¹ and a kon of 210000 M⁻¹ s⁻¹.

B2: monoclonal antibody 224B1 (rabbit) (antibody, V domains shown)
VH: QSVEESGGRLVTPETPLTLTCTASGFSLSSYYMSWVRQAPGKGLEWIGYIWTDGSAHYATWTKGRFTISKTSSTTVDLKITSPTTEDTATYFCVRANSGSHTYIEKFNLWGPGTLVTVSS
VL: DVVMTQTPASVEATVGGSVTIKCQASPSINDELSWYQQKPGQRPTLLIYEASALESGVPSRFKGSGSGTEFTLTIGDLECADAATYYCQCTYGSRSDISYGNTFGGGTEVVVKG
A word on the EC50: it is the concentration needed to bring the measured effect to its halfway point. With B2, the binding result in assay [1] was “binds”. The 50% effective concentration (EC50) in assay [3] turned out to be 0.4 nM. The EC50 in assay [4] was 0.1 nM. In assay [2], this molecule came in with a Kd of 5.1 nM, a koff of 0.0012 s⁻¹ and a kon of 230000 M⁻¹ s⁻¹.

The values are drawn from patent publication US20230009582A1 (MEMO THERAPEUTICS, published 2023).
